Test results reported in publication PMC5709419, “Fine control of metal concentrations is necessary for cells to discern zinc from cobalt”.

B1: zntAPro (dsDNA)
DNA 1: CTTGACTCTGGAGTCGACTCCAGAGTGTATCCTC
DNA 2: GAGGATACACTCTGGAGTCGACTCCAGAGTCAAG
B2: znuAPro (dsDNA)
DNA 1: TAGAATGTTATAATATCACATTTCACACATTCA
DNA 2: TGAATGTGTGAAATGTGATATTATAACATTCTA

Assays:
ZntR [1] = target: T1, ZntR (Salmonella enterica sv. Typhimurium …, UniProt A0A0H3NSQ7 1-141); experiment: fluorescence anisotropy; apo, 5 mM EDTA; 10 nM probe, 60 mM NaCl, 240 mM KCl, 10 mM HEPES pH 7.0, anaerobic; temperature not stated; conditions: protein: recombinant; chain copies: 2; label: 5' HEX on strand 1; blunt
ZntR [2] = target: T1, ZntR; experiment: fluorescence anisotropy; Co(II)-ZntR, 5 uM CoCl2; 10 nM probe, 60 mM NaCl, 240 mM KCl, 10 mM HEPES pH 7.0, anaerobic; temperature not stated; conditions: protein: recombinant; chain copies: 2; label: 5' HEX on strand 1; blunt
ZntR [3] = target: T1, ZntR; experiment: fluorescence anisotropy; Zn(II)-ZntR, 1.2 eq ZnCl2; 10 nM probe, 60 mM NaCl, 240 mM KCl, 10 mM HEPES pH 7.0, anaerobic; temperature not stated; conditions: protein: recombinant; chain copies: 2; label: 5' HEX on strand 1; blunt
Zur [4] = target: T2, Zur (Salmonella enterica sv. Typhimurium …, UniProt A0A0H3NVF0 1-171); experiment: fluorescence anisotropy; Zn(II)2-Zur (tightest two exchangeable sites filled); 10 nM probe, 60 mM NaCl, 240 mM KCl, 10 mM HEPES pH 7.0, anaerobic; temperature not stated; conditions: protein: recombinant; chain copies: 4; label: 5' HEX on strand 1; blunt
Zur [5] = target: T2, Zur; experiment: fluorescence anisotropy; Zn(II)4-Zur, 1 uM ZnCl2; 10 nM probe, 60 mM NaCl, 240 mM KCl, 10 mM HEPES pH 7.0, anaerobic; temperature not stated; conditions: protein: recombinant; chain copies: 4; label: 5' HEX on strand 1; blunt
Zur [6] = target: T2, Zur; experiment: fluorescence anisotropy; Co(II)-Zur, 1 uM CoCl2; 10 nM probe, 60 mM NaCl, 240 mM KCl, 10 mM HEPES pH 7.0, anaerobic; temperature not stated; conditions: protein: recombinant; chain copies: 4; label: 5' HEX on strand 1; blunt

Row | Binder | Kd (ZntR [1]) | Kd (ZntR [2]) | Kd (ZntR [3]) | Kd (Zur [4]) | Kd (Zur [5]) | Kd (Zur [6])
1 | B1 | 1100 nM | 340 nM | 650 nM | – | – | –
2 | B2 | – | – | – | 41 nM | 54 nM | 31 nM
